# Source: the Immune Epitope Database (IEDB)
# pKd: −log10 of the molar value.
# How the values were obtained:
# [1] = biological target: HLA-A*02:01; experiment: IEDB peptide-MHC binding, purified MHC/competitive/radioactivity; filed as Kd, often an IC50 or EC50 that approximates it; ≥ and ≤ were set here for values at or beyond the usual limits of such assays
# [2] = biological target: HLA-A*11:01; experiment: as above
# [3] = source organism: Mammarenavirus choriomeningitidis
# [4] = source organism: Mammarenavirus brazilense
sequence,measurement,setting,value
AQPGLLSYV,pKd,[1]; source organism: Mammarenavirus guanaritoense,6.79
FTNDSIISH,pKd,[2]; [3],7.42
GLSQFTQTV,pKd,[1]; source organism: Mammarenavirus juninense,7.52
KCLNIMLGK,pKd,[2]; [4],6.17
LVSFLLLAGR,pKd,[2]; [3],7.15
LVTFLLLCGR,pKd,[2]; source organism: Mammarenavirus lassaense,≤ 5.30
SIQKNTIFK,pKd,[2]; source organism: Mammarenavirus machupoense,8.26
SSIIRSLPK,pKd,[2]; source organism: Mammarenavirus whitewaterense,8.60
SSQRDTILK,pKd,[2]; [4],8.03
STYYVHENK,pKd,[2]; [4],8.22
TTYLGPLSCK,pKd,[2]; [3],8.55
